According to article doi:10.1101/2023.05.30.542914 (bioRxiv, 2023):

T1: COPB2_(1-304), N-terminal WD-repeat domain of the COPB2 coatomer subunit (S. cerevisiae, UniProt P41811 1-304)
T1 sequence: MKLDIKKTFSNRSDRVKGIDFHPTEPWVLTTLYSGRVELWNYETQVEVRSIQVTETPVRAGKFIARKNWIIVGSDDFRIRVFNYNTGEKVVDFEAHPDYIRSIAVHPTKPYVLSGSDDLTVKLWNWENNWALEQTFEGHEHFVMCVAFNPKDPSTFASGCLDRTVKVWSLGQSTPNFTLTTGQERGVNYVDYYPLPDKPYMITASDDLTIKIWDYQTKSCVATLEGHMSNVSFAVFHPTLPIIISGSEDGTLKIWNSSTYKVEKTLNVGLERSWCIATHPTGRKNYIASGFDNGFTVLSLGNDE


Biological target: T1, COPB2_(1-304), N-terminal WD-repeat …
Assay: ITC

| Binder | Kd [µM] |
| --- | --- |
| PVRASRNKRPTFLKIKKP [Exosome Binding Peptide (EBP) of Wnt7a, 18 aa polypeptide (240-257)] | 11.6 |
| LKIKKP [Wnt_(252-257) peptide (LKIKKP), C-terminal half of the EBP] | 37.2 |
